Where a chain is given by its changes, count along the chain named. Read-outs that look alike come from different tables or passages of the source.
T1: human p75 receptor fusion protein (R&D Systems) (human, UniProt P08138 29-250)
T1 construct: bought fusion protein; also called p75 neurotrophin receptor
T1 sequence (looked up): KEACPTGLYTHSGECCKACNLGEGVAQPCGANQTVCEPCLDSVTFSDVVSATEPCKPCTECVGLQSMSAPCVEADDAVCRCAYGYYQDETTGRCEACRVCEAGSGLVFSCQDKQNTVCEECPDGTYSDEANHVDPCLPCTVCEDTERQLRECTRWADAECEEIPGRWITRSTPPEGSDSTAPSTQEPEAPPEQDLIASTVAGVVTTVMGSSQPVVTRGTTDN

B1: rat nerve growth factor (beta-NGF) (ligand, UniProt P25427 122-241, looked up)
chain: SSTHPVFHMGEFSVCDSVSVWVGDKTTATDIKGKEVTVLGEVNINNSVFKQYFFETKCRAPNPVESGCRGIDSKHWNSYCTTTHTFVKALTTDDKQAAWRFIRIDTACVCVLSRKAARRG
notes: mature; also called rat NGF; recombinant rat β-NGF
B2: 1064F8 human IgG4 (antibody, V domains shown)
VH: EVQLVQSGAEVKKPGSSVKVSCKASGGTFSSYAYTWVRQAPGQGLEWMGGIVPIFGSTNYAQKFQGRLTITADEFTSTAHMELSSLTSADTAVYYCAGGSDLYCSGGNCYGGGHYYYYMDVWGQGTTVTVSS
VL: SSELTQDPAVSVALGQTVRITCTGTSSDVGGYNYVSWYQQHPGKAPKLMIYEGSKRPSGVSNRFSGSKSGNTASLTISGLQAEDEADYYCSSYTTRSTRVFGGGTKLTVL
B3: 1083H4 human IgG4 (antibody, V domains shown)
VH: QMQLVQSGAEVKKTGSSVKVSCKASGYTFAYHYLHWVRQAPGQGLEWMGGIIPIFGTTNYAQRFQDRVTITADESTSTAYMELSSLRSEDTAVYYCASADYVWGSYRPDWYFDLWGRGTMVTVSS
VL: QSVLTQPPSASGTPGQRVTISCSGSSSNIGSNTVNWYQRLPGAAPQLLIYNNDQRPSGIPDRFSGSKSGTSGSLVISGLQSEDEADYYCASWDDSLNGRVFGGGTKLTVL
B4: 1022E3 human IgG4 (antibody, V domains shown)
VH: QVQLVQSGAEVKKPGASVKVSCKASGYSFINYSMHWVRQAPGQGLEWIGIINPGGDSTKYTQRFQDRVTMTWDTSTSTVYMDLSSLRSEDTAIYYCARGLHPIPMMLATINPIFAYWGQGTLVTVSS
VL: SSELTQDPAVSVALGQTVRITCRGDSLRNYYANWYQQKPGQAPVLVIYDENKRPSGIPDRFSGSGSGNTASLTITGAQAEDEADYFCNSRDTFGYVRDVLFGGGTKVTVL
B5: 1024C4 human IgG4 (antibody, V domains shown)
VH: QVQLQESGGGVVQPGRSLRLSCAASGFAFKKYGLHWVRQAPGKGLEWVGVTSYDGSKNYYADSVKGRFTISRDNSKNTLYLQVNSLRPEDTAVYYCAKDGEVGDLHLVPFRQDSGLDVWGRGTLVTVSS
VL: QSVLTQPPSVSVSPGQTASITCSGDNLGDKYVHWYQQKPGQSPVLVTYQDTKRPSGIPERFSGSNSGNTATLTISGTQAMDEAGYYCQAWDSSTVVFGGGTKLTVL
B6: 1021E5 human IgG4 (antibody, V domains shown)
VH: EVQLVQSGAEVKKPGSSVKVSCKASGGTFSTYGISWVRQAPGQGLEWIGGIIPIFDTGNSAQSFQGRVTITADESTSTAYMEVSSLRSDDTAVYYCASSSRIYDYAGGDHYYYDMDVWGQGTMVTVSS
VL: QAVLTQPSSVSTPPGQKVTISCSGSSSNIGNNYVSWYQQLPGTAPKLLIYDNNKRPSGIPDRFSGSKSGTSATLGITGLQTGDEADYYCGTWDSSLSAWVFGGGTKLTVL
B7: G1152H5 human IgG4 (antibody, V domains shown)
VH: QVQLVQSGAEVKKPGSSVKVSCKASGGTFSTYGISWVRQAPGQGLEWMGGIIPIFDTGNSAQSFQGRVTITADESTSTAYMELSSLRSEDTAVYYCARSSRIYDMISSLQPYYDMDVWGQGTMVTVSS
VL: B6 VL with A2S, S8P, T12A, P13A
notes: tested as whole human IgG4; also called germlined 1152H5
B8: 1252A5 IgG4 (antibody, V domains shown)
VH: B7 VH with M105L, I106N, S107P, Q110T, P111A
VL: B6 VL with A2S, S8P, T12A, P13A
notes: tested as whole human IgG4; also called germlined 1133C11

Assays:
[1] = target: T2, human nerve growth factor (beta-NGF) (human, UniProt P01138 122-241); assay: inhibition of human 125I-NGF binding to coated p75 fusion protein
Description: (§1) Human TrkA and p75 receptor fusion proteins (R&D Systems) were diluted in Dulbecco's PBS (Gibco) to final concentrations of 10 nM and 0.6 nM, respectively. Maxisorp Nunc white 96 well microtitre plates (Nalge Nunc) were coated overnight at 4° C. with 100 μl/well of the diluted TrkA or p75 receptor solution. Plates were washed 3 times with PBS Tween 20, and then blocked with 200 μl/well 3% w/v bovine serum albumin (BSA) in PBS. Plates were washed after 1 h incubation at room temperature. Test antibodies were diluted to the desired concentration in assay buffer (0.5% w/v BSA and 0.05% v/v Tween 20 in PBS). […] Duplicate wells were prepared for each concentration of test sample. […] Bound radiolabel was quantified by addition of 100 μl/well Microscint 20 (Perkin Elmer) followed by counting using a Packard TopCount microplate liquid scintillation counter. Data were plotted and analysed using Graphpad Prism software to calculate IC₅₀ values for each experiment, and to derive the corresponding Ki according to the Cheng-Prusoff equation; Ki=IC₅₀/(1+D/Kd) Where: [0257]

[2] = target: T2, human nerve growth factor (beta-NGF); assay: inhibition of human 125I-NGF binding to coated TrkA fusion protein
Description: as §1

[3] = target: B1; assay: inhibition of rat 125I-NGF binding to coated p75 fusion protein
Description: as §1

[4] = target: B1; assay: cell-based or functional assay
[5] = target: T2, human nerve growth factor (beta-NGF); assay: cell-based or functional assay
[6] = target: B1; assay: inhibition of rat 125I-NGF binding to coated TrkA fusion protein
Description: as §1

[7] = target: mouse nerve growth factor (mouse, UniProt P01139 122-241); assay: cell-based or functional assay
[8] = target: T1, human p75 receptor fusion protein (R&D …); assay: unlabelled NGF displacing rat 125I-NGF from coated p75 fusion protein
Description: as §1

[9] = target: T3, human TrkA receptor extracellular domain fusion protein (R&D Systems) (human, UniProt P04629 33-423); assay: unlabelled NGF displacing rat 125I-NGF from coated TrkA fusion protein
T3 construct: extracellular domain; bought fusion protein; also called TrkA receptor fusion protein

[10] = target: B1; assay: cell-based or functional assay; remark: listed apart in the source
[11] = target: T2, human nerve growth factor (beta-NGF); assay: cell-based or functional assay; remark: listed apart in the source
[12] = target: B1; assay: cell-based or functional assay; remark: listed apart in the source
[13] = target: T2, human nerve growth factor (beta-NGF); assay: cell-based or functional assay; remark: listed apart in the source
[14] = target: B1; assay: rat 125I-NGF saturation binding to captured IgG4, one-site model
Description: (§2) Briefly, flashplates (Perkin Elmer SMP200) were coated with 100 μl/well of 2.2 μg/ml goat anti-human IgG (Sigma-Aldrich, UK) in phosphate buffered saline (PBS) for 1 h. Wells were washed with PBS and then blocked for 1 h with 200 μl/well PBS containing 3% w/v bovine serum albumin (BSA; Sigma-Aldrich, UK). […] Following incubation for 1 h plates were washed with PBS.
(§3) Plates were incubated overnight, and wells counted for 1 min on a gamma counter (TopCount NXT, Perkin Elmer). Specific binding was calculated according to the formula ‘specific binding=total binding−non-specific binding’. Binding curves were plotted and binding parameters determined according to a one-site saturation binding model using Prism software (GraphPad Software Inc., USA).

[15] = target: T2, human nerve growth factor (beta-NGF); assay: human 125I-NGF saturation binding to captured IgG4, one-site model
Description: as §2, §3

[16] = target: B1; assay: inhibition of rat 125I-NGF binding to coated TrkA fusion protein, Cheng-Prusoff, n=3
Description: (§4) Competition binding experiments were designed in order to calculate binding inhibition constant (Ki) values. […] Ki values were then derived using the Cheng-Prusoff equation.
as §1

[17] = target: T2, human nerve growth factor (beta-NGF); assay: inhibition of human 125I-NGF binding to coated TrkA fusion protein, Cheng-Prusoff, n=3
Description: as §4, §1

[18] = target: T2, human nerve growth factor (beta-NGF); assay: inhibition of human 125I-NGF binding to coated p75 fusion protein, Cheng-Prusoff, n=3
Description: as §4, §1

[19] = target: B1; assay: inhibition of rat 125I-NGF binding to coated p75 fusion protein, Cheng-Prusoff, n=3
Description: as §4, §1

mouse nerve growth factor, sequence (P01139 122-241): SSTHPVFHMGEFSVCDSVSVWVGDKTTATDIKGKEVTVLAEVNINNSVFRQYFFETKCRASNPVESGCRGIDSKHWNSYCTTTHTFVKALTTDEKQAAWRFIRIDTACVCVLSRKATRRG
T2 sequence (P01138 122-241): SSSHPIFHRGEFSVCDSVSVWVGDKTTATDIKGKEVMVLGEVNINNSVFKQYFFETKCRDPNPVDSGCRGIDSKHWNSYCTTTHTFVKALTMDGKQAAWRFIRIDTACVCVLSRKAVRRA
T3 sequence (P04629 33-423): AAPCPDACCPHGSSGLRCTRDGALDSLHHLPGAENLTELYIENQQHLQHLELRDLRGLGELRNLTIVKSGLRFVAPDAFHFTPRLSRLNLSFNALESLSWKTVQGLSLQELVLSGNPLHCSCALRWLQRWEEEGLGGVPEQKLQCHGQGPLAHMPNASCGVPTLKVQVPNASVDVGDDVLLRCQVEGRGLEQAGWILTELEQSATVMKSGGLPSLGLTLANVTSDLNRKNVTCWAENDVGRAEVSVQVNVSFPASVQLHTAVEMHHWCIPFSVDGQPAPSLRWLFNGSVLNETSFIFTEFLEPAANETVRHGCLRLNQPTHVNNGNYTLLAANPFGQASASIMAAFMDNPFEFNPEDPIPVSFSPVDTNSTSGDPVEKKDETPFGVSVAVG

| Molecule | IC50 [1] | Ki [1] | IC50 [2] | Ki [2] | IC50 [3] | Ki [3] | IC50 [6] | Ki [6] | IC50, FLIPR calcium mobilisation [7] | IC50, TF-1 cell proliferation [7] | IC50, calcium mobilisation assay [10] | IC50, calcium mobilisation assay [11] | IC50, FLIPR calcium mobilisation [12] | IC50, FLIPR calcium mobilisation [13] | IC50, PC12 cell survival [13] | other results |
| --- | --- | --- | --- | --- | --- | --- | --- | --- | --- | --- | --- | --- | --- | --- | --- | --- |
| mouse anti-human NGF MAB256 (R&D Systems) (antibody) | 0.304 nM | 0.252 nM | 1.94 nM | 1.76 nM | 2.94 nM | 2.67 nM | 1.48 nM | 1.38 nM | 1.4 nM | 7 nM | – | – | – | – | – | IC50, FLIPR calcium mobilisation [4]: 0.79 nM; IC50, PC12 cell survival [4]: 44 nM; IC50, TF-1 cell proliferation [4]: 5 nM; IC50, calcium mobilisation assay [4]: 0.79 nM; IC50, FLIPR calcium mobilisation [5]: 0.76 nM; IC50, PC12 cell survival [5]: 23 nM; IC50, TF-1 cell proliferation [5]: 6 nM; IC50, calcium mobilisation assay [5]: 0.76 nM |
| B1 | – | – | – | – | – | – | – | – | – | – | – | – | – | – | – | IC50 [8]: 0.783 nM; Ki [8]: 0.71 nM; IC50 [9]: 1.3 nM; Ki [9]: 1.2 nM |
| B2 | – | – | – | – | – | – | – | – | – | – | 5.5 nM | 2.5 nM | – | – | – | – |
| B3 | – | – | – | – | – | – | – | – | 54 nM | – | 61 nM | 30 nM | 61 nM | 30 nM | ~1100 nM | – |
| B4 | – | – | – | – | – | – | – | – | – | – | 14 nM | 18 nM | – | – | – | – |
| B5 | – | – | – | – | – | – | – | – | – | – | ~565 nM | ~410 nM | – | – | – | – |
| B6 | – | – | – | – | – | – | – | – | 47 nM | – | 75 nM | 76 nM | 75 nM | 76 nM | ~1300 nM | – |
| B7 | 0.348 nM | 0.288 nM | 0.204 nM | 0.184 nM | 0.781 nM | 0.708 nM | 0.538 nM | 0.499 nM | 0.18 nM | 0.99 nM | – | – | 0.27 nM | 0.22 nM | 1.1 nM | Kd [14]: 0.5 nM; Kd [15]: 0.37 nM; pKi [16]: 9.18; pKi [17]: 9.59; pKi [18]: 9.56; pKi [19]: 9.24; IC50, PC12 cell survival [12]: 7.3 nM; IC50, TF-1 cell proliferation [12]: 1.44 nM; IC50, TF-1 cell proliferation [13]: 0.44 nM |
| B8 | 0.188 nM | 0.155 nM | 0.068 nM | 0.061 nM | 0.302 nM | 0.274 nM | 0.151 nM | 0.14 nM | 0.26 nM | 0.55 nM | – | – | 0.29 nM | 0.33 nM | 0.94 nM | Kd [14]: 0.44 nM; Kd [15]: 0.35 nM; pKi [16]: 9.79; pKi [17]: 10.3; pKi [18]: 9.85; pKi [19]: 9.55; IC50, PC12 cell survival [12]: 2.7 nM; IC50, TF-1 cell proliferation [12]: 0.72 nM; IC50, TF-1 cell proliferation [13]: 0.42 nM |

From US20080107658A1 (AstraZeneca / MedImmune, published 2008)
